In article PMC6083498, “F-CphI represents a new homing endonuclease family using the Endo VII catalytic motif”:
Positions count from the first letter of the chain named.

Legend:
F-CphI N118D = target: T1, F-CphI N118D (cyanophage S-PM2, UniProt Q7Y4H4 1-142, N118D); experiment: EMSA; no Mg2+ added; EMSA: 10 mM Tris-HCl pH 8.0, 2% glycerol, 2 ug/ml poly-dIdC, 2 ug/ml BSA, 0.2 mM DTT, on ice 15 min, 2 nM labeled DNA; 8% native PAGE in 1X TBE; details: protein: recombinant; tags: C-terminal Myc-His; label: 5'-32P on top strand; blunt
T1 sequence: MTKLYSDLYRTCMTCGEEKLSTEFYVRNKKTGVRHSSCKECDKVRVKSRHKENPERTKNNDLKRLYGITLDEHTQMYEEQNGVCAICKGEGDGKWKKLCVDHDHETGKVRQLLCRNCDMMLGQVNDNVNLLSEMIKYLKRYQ

F-CphI C84S = target: T2, F-CphI C84S (cyanophage S-PM2, UniProt Q7Y4H4 1-142, C84S); experiment: as above; details: protein: recombinant; tags: C-terminal Myc-His; label: 5'-32P on top strand; blunt
T2 sequence: T1 sequence with C84S, D118N

B1: SBM4-60Top duplex (dsDNA)
DNA 1: TGGTCTGGGTATGGAAGTGATGCACGAGCGCAACGCTCACAACTTCCCTCTCGACCTTGC
DNA 2: GCAAGGTCGAGAGGGAAGTTGTGAGCGTTGCGCTCGTGCATCACTTCCATACCCAGACCA
**Q.** Does B1 bind (F-CphI N118D)?
**A.** Result: no binding

**Q.** Does B1 bind (F-CphI C84S)?
**A.** Result: no binding
